# Results taken from the supplement of paper PMC9732359.
# ± gives the uncertainty stated by the source.
# Assay: protein stability index of a GFP-peptide fusion (yeast GPS) (PSI 1-4); higher = more stable; sorted into four equal gates, so the index is relative within each strain
# Settings: doa10∆
# Outline: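 Mid-log yeast cultures in leucine-free medium, carrying a pooled plasmid library, were sorted into four equal gates by their GFP/Cherry fluorescence ratio. Each plasmid expressed Cherry along with GFP fused upstream of a tiled 17-residue yeast protein peptide. Plasmids recovered from each gate were PCR-amplified and Illumina-sequenced, with reads assigned to strains by barcodes. The protein stability index was obtained by summing each gate's read frequency weighted by its gate number.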
row,Sequence,protein stability index
1,STTTSLHVPNLQPPKTS [SMC4],2.13 ± 0.036

# Same assay, conditions: pdr5∆
row,Sequence,protein stability index
1,SKKLNLKIHQSHLVVPY [YMR129W/POM152],1.95 ± 0.086
2,SKKNRPTLQVGDLVYAR [RRP40],2.48 ± 0.09
3,SKKQRNNGSKDHGDGIL [RPN9],2.85 ± 0.097
4,SKKTSPKATSSAGAVFK [YOR098C/NUP1],2.42 ± 0.086
5,SKNAQFICTTFRTDMLQ [SMC3],1.49 ± 0.075
6,SKPVLIVGQKNLNRAFN [DIS3],2.8 ± 0.1
7,SKQDLIHSLIPVAKWFV [SIN4],2.99 ± 0.054
8,SKQQAKGAFQKVAATSR [RPL24A],2.99 ± 0.045
9,SKRWAQRTLSKSFYSTA [CYT1],2.32 ± 0.054
10,SKRYIPSVNDFVIGVII [RRP40],2.66 ± 0.056
11,SKSNLIHNYDSKKSTIT [RGR1],3.03 ± 0.054
12,SKSVPTPSLPIAPPVAP [SNF5],2.81 ± 0.061
13,SLAKSSALWSSRKGIAF [ECM29],1.88 ± 0.14
14,SLASCLRSTEYSKSFEQ [POP1],2.88 ± 0.13
15,SLDDNSTSLEKQINSIK [YJL041W/NSP1],3.08 ± 0.065
16,SLDEILLPANLLSLNSV [SRP68],3.15 ± 0.058
17,SLDLNNLELGGLNMDFL [PGD1],3.19 ± 0.099
18,SLELQSFQKIPLSRINE [YML103C/NUP188],2.82 ± 0.11
19,SLFELIVPIFQLISAVL [YJL039C/NUP192],1.75 ± 0.051
20,SLILKESGSTPISISNA [YAR002W/NUP60],1.62 ± 0.1
21,SLKNTDALLNSTTEHIN [YJL039C/NUP192],2.49 ± 0.094
22,SLLDAEEERRKKRESGV [SNF2],3.32 ± 0.1
23,SLLGGFDENIARDIISH [PCI8],2.83 ± 0.048
24,SLLLSSVKESTGMSSMS [SRB4],2.21 ± 0.078
25,SLQDRSSLVRRNSVKLL [YCS4],2.12 ± 0.049
26,SLQRSKSSFVKESAVIS [SMC1],2.27 ± 0.047

row,Sequence,protein stability index
1,SLQYINIRGNTIRQIIL [SMD1],3.26 ± 0.085
2,SLRILAKLSERSNGSVA [YJL039C/NUP192],2.27 ± 0.04
3,SLSDEVMRNEIRITSLQ [SIR4],2.48 ± 0.064
4,SLSKISQAFDIVAALPI [RPP1],3.46 ± 0.15
5,SLSNPNSTATMQHNPLA [PGD1],3.1 ± 0.039
6,SLTAEAMTAAEHGLHAP [CYT1],3.25 ± 0.073
7,SLTPTQSDSAKVEIKKV [PRP28],3.39 ± 0.069
8,SLTTVWAEHLSDEVKRR [RPL3],2.85 ± 0.18
9,SLVNSYIIDSPQPSSIN [COB],1.59 ± 0.08
10,SLYPPPPPYVKFFTQSN [MED7],2.17 ± 0.048
11,SMFSGLDSTGFDSTAFN [MED2],3.17 ± 0.042
12,SMINNSNQAVGQTWNFP [SRB8],3.01 ± 0.16
13,SMKANTSTNPNGLGTSH [ARP7],3.41 ± 0.098
14,SNDFEEGSTIRYLAVTL [YMR129W/POM152],2.28 ± 0.049
15,SNDTTAFNDSCVNLSLF [SRB8],2.92 ± 0.069
16,SNFTSIIGPNGSGKSNM [SMC1],3.04 ± 0.15
17,SNIELAFSSVEHIIRDV [COB],2.78 ± 0.1
18,SNIPNLLRNLESKMRQQ [YDL088C/ASM4],2.84 ± 0.086
19,SNIQRNVLFLRLFNNVK [SRP72],2.23 ± 0.054
20,SNTNDNISIITLELESF [RGR1],2.39 ± 0.081
21,SNTTTQIQFTPLIKKIK [SMC3],2.46 ± 0.045
22,SNVNSDIYFKLKKLEKE [RPT3],2.73 ± 0.09
23,SNYAASNSMDRSSSASN [SWI1],2.7 ± 0.089
24,SPELKADLRPLQIKSIR [RPS7B],2.9 ± 0.13
25,SPFGAYGEAPTSPGFGV [RPO21],3.12 ± 0.052
26,SPIFEVLSDDAKKLSSF [ARP9],3.19 ± 0.11

row,Sequence,protein stability index
1,SPLQKEEALNFDISMAD [SSN2],3.07 ± 0.057
2,SPLYMDTETFDTVNSAL [YML103C/NUP188],3.27 ± 0.14
3,SPMGAQPSYNSAIIENA [GAL11],2.96 ± 0.071
4,SPNFKNYLKYLEYWCNP [SOH1],2.34 ± 0.056
5,SPRFNVKIGDIEKWTAN [RPS22A],3.23 ± 0.075
6,SPTINRANVYVGFLVQL [PRP8],1.89 ± 0.066
7,SPYGNLQNDLIHKIQND [RPN5],2.67 ± 0.053
8,SQIFDQLKDMQTIEMIT [SRB8],3.11 ± 0.049
9,SQKTKTIQSDLNLSLHK [SMC2],2.3 ± 0.043
10,SQLDLFLRTMKLTSEET [GRR1],2.7 ± 0.052
11,SQLNIQLSQDEHSQVEQ [SRP72],3.07 ± 0.047
12,SQLPITPMTRISELPPQ [YGL172W/NUP49],2.67 ± 0.047
13,SQPNNTPSFSFGKTTAN [YLR335W/NUP2],2.84 ± 0.051
14,SQSQQKLLKEKVKLFHG [MED2],3.1 ± 0.093
15,SQVDPITLFVLVSVVEA [FAS2],2.03 ± 0.069
16,SQVFGVARIYASFNDTF [RPS14A],1.81 ± 0.045
17,SQVLDLAKKIAPGKVEL [SMC2],3.28 ± 0.19
18,SREAVRHFGMGPHKGKA [RPL18A],2.8 ± 0.12
19,SRGFEVMYNGHTGKKLM [RPB2],3.33 ± 0.25
20,SRKETSRTATWLKNKFA [BRR2],1.29 ± 0.041
21,SRLKALNLQFKAKVDDL [YLR335W/NUP2],3.2 ± 0.091
22,SRSTDNFHNSKKRMNSN [RRI1],2.4 ± 0.081
23,SRTLILSILNEIKKVTQ [SIN4],2.56 ± 0.15
24,SRYEPKVFDCGDNIVMS [PRE7],2.78 ± 0.11
25,SSDAFEVDVCDKCGLMG [RET1],2.59 ± 0.11
26,SSDGQLKKFRESLVHSA [BRR2],3.25 ± 0.23

row,Sequence,protein stability index
1,SSEYETINISLSFSWAI [NUT1],1.64 ± 0.16
2,SSFEKFNDSQAIVCYIL [SRP72],2.53 ± 0.047
3,SSHAKGIVLEKLGIESK [RPS23A],2.88 ± 0.13
4,SSIDRGFGRCETRRKTT [RET1],2.38 ± 0.12
5,SSIENNINNNINSTKNG [MED2],3.11 ± 0.093
6,SSKKVFSSNLSYANHLE [YOR098C/NUP1],2.31 ± 0.064
7,SSKLVDVYTLPSYVHFK [YML103C/NUP188],1.61 ± 0.046
8,SSKPAFNLISNAGTEKE [YLR335W/NUP2],2.95 ± 0.098
9,SSLKESSPDTMKLTDLL [SNF12],3.08 ± 0.083
10,SSLMNGLGYVFEFQYLT [SRB5],1.83 ± 0.085
11,SSNILEDILYYSTCPSE [SRB8],2.4 ± 0.075
12,SSSIKSTGPTGAVSLNP [RRP4],3.37 ± 0.048
13,SSSKQQSRLFINELVLE [SMC4],2.95 ± 0.1
14,SSSKSMINDENYIINDI [SRB8],2.82 ± 0.052
15,SSSNGGGSAKPSLKFKP [RPC53],3 ± 0.14
16,SSSSDIIVPDLIELKSD [YML103C/NUP188],3.15 ± 0.059
17,SSSTQNVFVILMDKCLP [DIS3],1.96 ± 0.053
18,SSTPKFTKKPVTPNDKI [SIR4],2.89 ± 0.07
19,STAFVPTIEYVQCPTVI [ARP9],1.97 ± 0.048
20,STCIVSLIRNNLHAEGW [ECM29],1.47 ± 0.068
21,STRASTVPNLPTTMVTN [ISW2],2.38 ± 0.056
22,STTAALQSISSLTISLY [RPN7],1.82 ± 0.035
23,STTTSLHVPNLQPPKTS [SMC4],2.33 ± 0.033
